Values of other authors as cited in paper PMC11211486.

Columns and labels:
MepM (Escherichia coli) = MepM (Escherichia coli) (UniProt P0AFS9)
PBP4 (Escherichia coli) = PBP4 (Escherichia coli) (UniProt P24228)
MepS (Escherichia coli) = MepS (Escherichia coli) (UniProt P0AFV4)

Measured: Kd

Sequence of NlpI (C4ZSQ4 19-294): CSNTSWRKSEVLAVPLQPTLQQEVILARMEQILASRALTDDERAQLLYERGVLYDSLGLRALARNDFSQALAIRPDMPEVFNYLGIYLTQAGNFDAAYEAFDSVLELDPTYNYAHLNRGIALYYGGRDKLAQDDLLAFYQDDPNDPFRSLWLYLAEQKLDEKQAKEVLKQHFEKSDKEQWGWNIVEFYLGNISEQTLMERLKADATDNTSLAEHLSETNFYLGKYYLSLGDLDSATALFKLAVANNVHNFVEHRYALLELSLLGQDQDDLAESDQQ
Sequence of MepM (Escherichia coli) (P0AFS9 whole entry): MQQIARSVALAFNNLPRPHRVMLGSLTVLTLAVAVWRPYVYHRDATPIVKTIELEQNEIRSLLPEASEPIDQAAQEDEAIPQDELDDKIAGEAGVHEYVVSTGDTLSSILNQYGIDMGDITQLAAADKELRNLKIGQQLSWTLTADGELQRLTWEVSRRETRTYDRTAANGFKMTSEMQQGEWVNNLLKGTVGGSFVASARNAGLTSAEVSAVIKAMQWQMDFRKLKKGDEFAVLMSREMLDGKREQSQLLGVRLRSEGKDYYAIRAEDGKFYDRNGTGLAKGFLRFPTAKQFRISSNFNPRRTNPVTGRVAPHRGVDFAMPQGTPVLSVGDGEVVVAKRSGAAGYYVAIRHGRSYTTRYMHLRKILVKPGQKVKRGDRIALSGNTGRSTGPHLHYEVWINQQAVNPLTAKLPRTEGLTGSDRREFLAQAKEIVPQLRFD
Sequence of PBP4 (Escherichia coli) (P24228 21-477): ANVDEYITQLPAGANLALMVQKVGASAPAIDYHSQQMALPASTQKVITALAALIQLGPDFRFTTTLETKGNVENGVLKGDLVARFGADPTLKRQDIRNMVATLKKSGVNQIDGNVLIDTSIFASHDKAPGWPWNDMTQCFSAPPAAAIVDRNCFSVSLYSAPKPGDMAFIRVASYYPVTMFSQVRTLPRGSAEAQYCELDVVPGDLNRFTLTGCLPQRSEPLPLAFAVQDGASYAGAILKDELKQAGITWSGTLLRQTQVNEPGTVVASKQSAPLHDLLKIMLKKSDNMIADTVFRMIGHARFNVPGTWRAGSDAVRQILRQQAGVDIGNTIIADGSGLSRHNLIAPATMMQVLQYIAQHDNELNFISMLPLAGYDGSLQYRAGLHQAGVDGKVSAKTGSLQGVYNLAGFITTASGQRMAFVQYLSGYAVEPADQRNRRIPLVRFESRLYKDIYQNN
Sequence of MepS (Escherichia coli) (P0AFV4 27-188): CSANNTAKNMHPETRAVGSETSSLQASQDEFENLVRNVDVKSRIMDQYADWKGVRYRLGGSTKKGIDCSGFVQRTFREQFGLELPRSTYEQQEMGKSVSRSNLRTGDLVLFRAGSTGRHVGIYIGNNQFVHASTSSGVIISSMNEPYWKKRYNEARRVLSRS

NlpI (from UniProt C4ZSQ4)
150 nM: all assays above
